In the nanobody polyreactivity screen of Harvey et al. (2022):

Test: yeast display, Sf9 membrane polyspecificity reagent, FACS + sequencing; frameworks hold sequencing errors
Summary of the method: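 Nanobodies from a synthetic yeast display library (Saccharomyces cerevisiae BJ5465), induced 36–48 hours with galactose, were stained 1 hour at 4 °C with 10% biotinylated, detergent-solubilized Sf9 membrane reagent, enriched on streptavidin microbeads, then FACS-sorted. Anti-HA (expression) and streptavidin (reagent binding) fluorescence set low and high (top ~1%) gates. Polyreactivity labels come from the gate of origin. Genes were colony-PCR amplified, MiSeq 2 × 250 sequenced and filtered by CDR length.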

Row | Sequence | polyreactivity (PSR sort gate)
1 | QVQLVESGGGLVQAGGSLRLSCAASGRTLDKYAMGWYRQAPGKERELVAAITSGGSTNYADSVKGRFTISRDNAKNTVYLQMNSLKPEDTAVYYCAKDLQGNPHFSYGIDFDYWGQGTQVTVSS | low polyreactivity
2 | QVQLVESGGGLVQAGGSLRLSCAASGSIFAYNAMGWYRQAPGKERELVAANSYSGASTYYADSVKGRFTISRDNAKNTVYLQMNSLKPEDTEVYYCAATSRRRGTKGYWQVWPRFDYWGQGTQVTVSS | high polyreactivity
3 | QVQLVESGGGLVQAGGSLRLSCAASGSIFFANAMGWYRQAPGKERELVATITSGGSTTYADSVKGRFTISRDNAKNTVYLQMNSLKPEDTAVYYCNADYDYGWVFYSNYDYWGQGTQVTVSS | low polyreactivity
4 | QVQLVESGGGLVQAGGSLRLSCAASGSIFYYYAMGWYRQAPGKERELVAAIDFGGGSTYYADSVKGRFTISRDNEKNTVYLQMNSLKPEDTAVYYCAARTFKDAGTAYGSWGQGTQETVSS | high polyreactivity
5 | QVQLVESGGGLVQEGGSLRLSCDASGLILLPYARGWYRQAPGKERELVAAISCSGGSTYYADSVKGRFTISRDNAKNTVYLQMNSLKPEVTAVYYCPARPNRQGFYYWGQGTQVTVSS | high polyreactivity
6 | QVQLVESGGGLVQAGGSLRLSCAASGRTFVRYAMGWSRQAPGKERELVAAITKSGGSTSYADSVKGRFTISRDNAKNTVYLQMNSLKPEDTAVYYCATRGYYQRSSPMDYWGQGTQVTVSS | high polyreactivity
7 | QVQLVESGGGLVQAGGSLRLSCAASGRTFTINGMGWYRQAPGKERELVAGINWRDGRTYYADSVKGRFTISRDNAKNTVYLQMNSLKPEDTAVYYCNVEVAESFDYWVQGTQVTVSS | low polyreactivity
8 | QVQLLESGGGLVQAGGSLRLSCSASGITFFVYDMGWYRQAPGKERDLVAAITWAGDSTYYADSVKGRFTISRDNAKNTVYLQMNSLKPEDTAVYYCAAQFDVYYSRQPYDYNRSGYWGQGTQVTVSS | low polyreactivity
9 | QDQLVESGGGLDQAGRSLRLSCAASGFTYRPYAMGWYRQEPGKERELVAAISSIGSTYYADSVKGRFTISRDNAKYTVYLPMNSLNPEDTAVYYCIADSYVRSTIFDHWGQGTQVTVSS | low polyreactivity
10 | QVQLVESGGGLVQAGGSLRLSCAASGFTFGINAMGWYRQAPGQERELVASISSGSSTTYADSVKGRFTISRDNAKNTVYLQMNSLKPEDTAVYYCNARPFHIYWRYDYWGQGTQLTVSS | low polyreactivity
11 | QVQLVESGGGLVQAGGSLRLSCAASGRTFRYYAMGWYRQAPGKESEFVARISSSGSSTYSADSVKGRFTISRDNAKNTVYLQMNSLKPEDTAVYYCAKTVLPYGGSNGLKWYYYWGQGTQVTVSS | high polyreactivity
12 | QVQLVESGGGLDQAGGSLRLSCAASGSIFVHYAMGWYRQAPGKERELVAGITFRGGRTYYADSVKGRFTISRDNAKNTVYLQMNSLKPEDTAVYYCAALYSVRGGYPSSHRIRMEYCGQGTQVTVSS | high polyreactivity
13 | QVQLVESGGGLVQAGGSLRLSCAASGSIFTKYAMGWYRQAPGKERELVAAINARGGSTYYADSVKGRFTISRDNAKNTVYLQMNSLKPEDTAVYYCAARYGVGRADYYWGHGTQVTVSS | high polyreactivity
14 | QVQLVESGGGLVQAGGSLRLSCAASGSIFGYYAMGWYRQAPGKERELVAAISWSGGRTYYADSVKGRFTISRDNAKNTVYLQMNSLKPEDTAVYYCNARWRSGPRAYDYWGQGTQVSVSS | high polyreactivity
15 | QVQLVESGGGFVQAGGSLRLSSAASGLTFAAYAMGWSRQAPGKERELVASISRRGGSTYYADSVKGRFTISRDNAMNTVYLQMNSLKPEDTAVYYCAARSFWGGLRYDYWGQGTQVTVSS | high polyreactivity
16 | QVQLVESGGGLVQAGGSLRLSCAASGRTLYKYAMGWYRQAPGKERELVAAISRNGGSTYYADSVKGRFTISRDNAKNTVYLQMNSLKPEDTAVYYCNALSRYRIWSYGYWGQGTQVTVSS | high polyreactivity
17 | QVQIEESGGGLVQAGGSLRLSCAASGSIFPLYTMGWSRQAPGKERELVAAIDFRGGSTYYADSVKGRFTISRDNAKNSVYLQMNSLKPEDTAVYYCAAAYWAYDTGKMGYWGQGTQVTVSS | low polyreactivity
18 | QVQLVESGGGLVQAGGILRLICDASGFIIGYYAMGWYRQAPGKERELVAAISKSGGRTRYADSVKGRFTISRDNAKNTVYLQMNSLKPEDTAVYYCATYDPARSTQGYDYWGQGTQVTVSS | high polyreactivity
19 | QVQLQESGGGLVQAGGSLRLSCAASGNISVTGIMGWYRQAPGKERELVASIGIGGTTYYADSVNGRFSISRDNAKNTVYLQMISLKPEDTALYYLAARYLYYAYSYWGQGTQVTVSS | low polyreactivity
20 | QVQLVESGGGLVQAGGSLRLICAASGRTFAGNAMGWYRQAPGKERELVAAISQGGGYTYYADSVKGRFTISRDNAKNNVYLQMNSLKPEDTAVYYCAAEIPRRWASFATLWYDYLGQGTQVTVSS | low polyreactivity
21 | QVQLVESGGGLVQAGGSLRLSCAASGSIFTGNAMGSYRQAPGKERELVAAISSSGARTYYADSVKGRFTISRDNAKNTVNLQMNSLKPEDTAVYYCNADSYTLYGLYDYWGQGTKVTVSS | low polyreactivity
22 | QVQLVESGGGLVQAGGSLRLSCAASGRTFKDYAMGWYRPAPGKERELFAAISRGGSTNYADSVKGRFTISRDNAKNTVYLQVNSLKPEDTAVYYCARRYIVQSGDDYWGQGTQVTVSS | low polyreactivity

Row | Sequence | polyreactivity (PSR sort gate)
23 | QVQLVESGGGLVQAGGSLRLSCAASGSIFRYVMGWYRQAPGKERELVAAISIRGGSTYYADSVKGRFTISRDNAKNTVYLQMNSLKPEDTAVYYCAADRYRLGVKYDYWGQGNQVTVSS | high polyreactivity
24 | QVQLVESGGGLVQAGGSLRLSCAASGRTLDKYAIGWYRQAPGKERELVAAITSGGTTKYADSVKGRFTISRDNAKNTVYLQMNSLKPEVTAVYYCAKDLEGNPHFSYGIDFDYWGQGTQVTVSS | low polyreactivity
25 | QVQLVESGGGLDQAGGSLRLSCAASGSIFFYYAMVWYRQAPGKERELVADITSGGTTYYADSVKGRFTISRDNAKNTVYLQLNSLKPEDTAVYYCNACLYPGQRPDYTNYSSDYLGQGTQVTVSS | low polyreactivity
26 | QVQLVESGGGLVQAGGSLRLSCAASGFIFYPYAMGSYRQAPGKERELVAAITSSGGSTYYADSVKGRFTISRDNAKNTVYLQMNSLKPEDTAVYYCAAYTSYYGTIIAFRYYYWGQGTQVTVSS | high polyreactivity
27 | QVQLVESGGGLVQAGGSLRLSCAASGRIFQGNAMGWYRQATGKERELVAAITTSGGSTYYADSVKGRFTISRDNAKNTVYLQMNSLKPEDTAVYYCNVDPRKRSYDYWGQGTQVTVSS | high polyreactivity
28 | QVQLVESGGGLVQAGGSLRLSCAASGIIFRYNAMGWYRPAPGKERELVAAITSGGITKYADSVKGRFTISRDNAKNTVYLQMNSLKPEDTAVYYCNAEYGFFRAGSRGEYWGQGTQVTVSS | low polyreactivity
29 | QVQHVESGGGLVQAGGSLRLSCAASGIIFPRNAMGRYRQAPGKEREFVAAITLSGGRTYYADSVKGRFTISRDNAKNSVYLQMNSLKPEDTAVYYCAAYGFGPYKGVDYWGQGTQVTVSS | high polyreactivity
30 | QVQLVESGGGLVQAGGSHRLICAASGSTFNFNVMGWYRQEPGKERELDAAISSSGGNTYYADSVKGRFTISRDNAKNTVYLQMNSLKPEDTAVYYCADEYEEWYSVFLYDYWGQGTQVTVSS | high polyreactivity
31 | QVQLVESGGGLVQAGGSLRLSCAASGRTFFYNAMGWYRQAPGKERELVAAISSGGGSTYYADSVKGRFTISRDNAKNTVYLQMNSLKPEDTAVYYCAAASYRQPGYGYWGQGTQVTVSS | high polyreactivity
32 | QVQLVESGGGLGQAGGSLRLSCAASGSIIPWNVMGWSRQARGKEREFVAGITFRVGSTYYADSVKGRFTISRDNAKNTVYLQMNSLKPEDTAVYYCAALIRAVDRYTYRYGYWGQGTQVTVSS | high polyreactivity
33 | QVQLVESGGGLVQPGGSLRLSCAASGSIFIGYAMGWYRQAPGKERELVASIRNGGSTNYADSVKGRFTISRDNAKNTVYLQMNSLKPEDTAVYYCAGRYPVFLVSFGFDYWGQGTQVTVSS | low polyreactivity
34 | QVHLVESGGGLVQAGGSLRLSCDASGSIFASNTMGWYRQEPGQERELVAGITKIGSSTYYADSVKGRFTISRDHAKNTVYLKMNSLTPEDTAVYYCNAYGPNIYSSRYEYWGQGTQVTVSS | low polyreactivity
35 | QVQLEESGGGLVKARGSLRITCAASGSTFDYYTMGWYRQAPGKERELFAAINSSGGRTYYADSVKGRFTISRDTAKNTVYLQMNSLIPEDTAVYDCAAVTLCLGRYPYTYTSRYEYWGLGTQVTVSS | high polyreactivity
36 | QVQLVESGGGLVQAGGSLRLSCAASGRTFYLYTMGWYRQAPGKERELVAAITGGGRTYYADSVKGRFTISRDNAKNTVYLQMNSLKPEDTAVYYCNADYAYYSYDYWGQGTQVTVSS | low polyreactivity
37 | QVQLVESGGGLVQAGGSLRLSCAASGITFRFYAMGWYRQAPGKERELVAAISWSGGSTNYADSVKGRFTISRDNAKNTVYLQLNSLKPEDTAVYYCAADQYYYRYIRTSKYDYWGQGTQVTVSS | high polyreactivity
38 | QVQLVESGGGSVQAGGSLRLSCAASGSIFAQYTMGWYRQAPGKERELVAVISINGVSTYYADSVKGRFTISRDNAKNTVYLQMNSLKPEDTAVYYCNAGISPYEALGYWGQGTQVTVSS | low polyreactivity
39 | QVQLVESGGGLVLAGGSLRLSCAASGHIFFYYTMGWYRQSPGKERELVAGITIGGSTNYADSVKGLFTISRDNAKNTVYLQMISLKPEDTAVYYCNVVKYVYIYSYWEYYYWGQGTQVTVSS | low polyreactivity
40 | QVQLVESGGGLVQAGGSLRLSCAASGRIFLLNAMGWYRQAPGKERELVARISSGRTYYADSVKGRFTISRDNAKNTVYLNMNSLKPEDTAVYYCNATVSSSKYRYFYVNPYYYWGQGTQVTVSS | low polyreactivity
41 | QVQLVESGGGLVQAGGSLRLSCAASGSIFRWYAIGWYRQAPGKERELVATICWSTGTTYYADSVKGRFTISRDNAKNTVYLQMNSLKPEDTAVYYCAKVSTYRSSYSLKSGYGNDYWGQGTQVTVSS | low polyreactivity
42 | QVQLVESGGGLVQAGGSLRLRCAASGFIYLKYDMGWYRQAPGKERELVDRITSTGGSTYYADSVKGRFTISRDNAKNTVYLQMNSLKPEDTAVYYCAAVYISRNFFGRARGDYWGQGTQVTVSS | low polyreactivity
43 | QVQLVESGGGLVQAGGSLRLSCAASGGTFSYYAMGWYRQARGKERELDAAISGNGDTTYYADSVKGRFTISRDNAKNTVYLQMNSLKPEDTAVYYCAADGWGFIVGIDYYPYGEGDYWGQGTQVTVSS | low polyreactivity
